Results from PMC5458090, “Decoding NADPH oxidase 4 expression in human tumors” (Redox Biology, 2017).

What was measured:
endogenous human NOX4 = biological target: T1, endogenous human NOX4 (Homo sapiens (endogenous), UniProt Q9NPH5); assay: Western blot; whole-cell extracts (RIPA buffer) loaded without boiling on a 4-20% Tris glycine gel, transferred to nitrocellulose, incubated with primary antibody overnight; fibroblasts treated with TGF-β1, COV362 cells with NOX4 siRNA; conditions: one partner purified
T1 construct: NADPH oxidase 4 (NOX4), endogenous in human cell lines and human tissues; also called endogenous NOX4; NOX4 protein; source: endogenous: CCL-210 lung fibroblast and COV362 whole-cell extracts; COV362 and OVCAR3 membrane fractions; COV362 cells; formalin-fixed human tissues (BioMax TMA MC6163)
T1 sequence (Q9NPH5 whole entry): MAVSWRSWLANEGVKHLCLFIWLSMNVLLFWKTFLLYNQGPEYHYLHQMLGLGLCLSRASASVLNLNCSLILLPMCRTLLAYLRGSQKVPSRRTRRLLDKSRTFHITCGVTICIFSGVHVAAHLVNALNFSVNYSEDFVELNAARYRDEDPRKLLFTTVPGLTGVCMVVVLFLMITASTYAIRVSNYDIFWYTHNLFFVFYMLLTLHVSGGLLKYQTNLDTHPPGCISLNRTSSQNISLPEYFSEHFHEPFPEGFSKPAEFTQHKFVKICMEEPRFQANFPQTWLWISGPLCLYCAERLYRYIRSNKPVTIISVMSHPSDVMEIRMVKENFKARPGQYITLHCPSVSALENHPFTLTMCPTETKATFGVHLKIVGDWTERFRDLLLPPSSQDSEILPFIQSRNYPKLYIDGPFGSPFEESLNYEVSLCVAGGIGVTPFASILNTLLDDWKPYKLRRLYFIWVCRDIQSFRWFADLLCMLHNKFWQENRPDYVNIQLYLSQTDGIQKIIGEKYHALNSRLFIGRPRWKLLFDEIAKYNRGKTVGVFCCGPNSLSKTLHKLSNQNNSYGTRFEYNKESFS

[1] = biological target: T2, MycDDK-HsNOX4 (human NADPH oxidase 4) (Homo sapiens, UniProt Q9NPH5); assay: as above; conditions: one partner purified
T2 construct: NADPH oxidase 4 (NOX4), human, from plasmid pCMV-MycDDK-HsNOX4; also called MycDDK-NOX4; source: HEK293, stably (clones WT1, WT2) or transiently transfected; in whole-cell extract or on/in cells; not shown: Myc, N-terminal, kept; DDK, N-terminal, kept
T2 sequence (Q9NPH5 whole entry): as above

binding result (endogenous human NOX4): binds
binding result [1]: binds
B1: NOX4 rabbit monoclonal antibody 47-6 (antibody, V domains shown)
VH: QSVEESGGRLVTPGGSLTLTCTVSGIDLSSNSVTWVRQAPGEGLKWIGIISDSHRAYYATWAKGRFTISKTSSTTVDLKMTSLTTGDTATYFCVVGNNIWGPGTLVTVSS
VL: AQVLTQTASPVSAAVGGTVTINCQASESVYSDNRLSWFQQKPGQPPKLLIYYASTLASGVPSRVKGSGSGTQFTLTISDLECDDAATYYCAGGFSNNIYEFGGGTEVVVK
notes: Rabbit monoclonal raised against fixed NOX4-overexpressing HEK293 cells and a peptide of human NOX4 amino acids 209-282 (E-loop); also called mAb 47-6; 47-6 mAb
